This is an account of results in publication PMC6168691, “The amino‐terminal domain of Mycobacterium tuberculosis ClpB protein plays a crucial role in its substrate disaggregation activity” (FEBS Open Bio, 2018).

“And” between values parts separate entries of the source, which are not always exact repeats. Equal values may be shown once.

The target of one test is FITC-labelled casein. The test is described as follows: fluorescence polarisation. Background: In fluorescence polarisation assays a small probe gives low polarisation when free and higher when bound to something large.
For test [1], the target named is N-terminally truncated Mycobacterium tuberculosis ClpB (ClpB∆N, residues 149–848) (Mycobacterium tuberculosis H37Rv) (UniProt P9WPD1). The experiment in a line: SEC; Superdex-200 (1 × 60 cm), buffer A; protein loaded at 6 mg/mL, no nucleotide.
Test [2] has as its target recombinant firefly luciferase (firefly) [luciferase: P08659].
Test [3] shares this target. This is another data set of the same source.
The target of test [4] is Mycobacterium tuberculosis DnaK (Mycobacterium tuberculosis) (UniProt P9WMJ9).
The target in test [5] is KJE chaperone complex (DnaK, DnaJ1, GrpE of Mycobacterium tuberculosis) (Mycobacterium tuberculosis | Mycobacterium tuberculosis H37Rv) (UniProt P9WMJ9).
For test [6], the target named is malate dehydrogenase from pig heart (pig) (UniProt P00346).
Test [7] has as its target N-terminally truncated Mycobacterium tuberculosis ClpB (ClpB∆N, residues 149–848) (Mycobacterium tuberculosis H37Rv) (UniProt P9WPD1). The test is described as follows: SEC; Superdex-200, buffer A; protein 0.2 mg/mL incubated with 5 mM ATP for 10 min at room temperature before loading. A general note: In gel filtration, larger molecules generally elute earlier.
Test [8] concerns the target malate dehydrogenase from pig heart (pig) (UniProt P00346). This is another data set of the same source.
For test [9], the target named is N-terminally truncated Mycobacterium tuberculosis ClpB (ClpB∆N, residues 149–848) (Mycobacterium tuberculosis H37Rv) (UniProt P9WPD1). The test is described as follows: SEC; Superdex-200 (1 × 60 cm), buffer A (50 mM Tris/HCl pH 7.5, 100 mM KCl, 10% glycerol, 1 mM EDTA, 1 mM DTT); protein loaded at 0.2 mg/mL, no nucleotide.
Test [10] concerns the target T1, Mycobacterium tuberculosis ClpB, full length (residues 1–848) (Mycobacterium tuberculosis H37Rv, UniProt P9WPD1 1-848).
T1 construct: also called Mtb ClpB; WT ClpB
The experiment in a line: fluorescence polarisation. As to conditions: both partners purified.

The target in test [11] is T1, Mycobacterium tuberculosis ClpB, full …. The experiment in a line: fluorescence polarisation. The settings on record: both partners purified. This is another data set of the same source.

Chain of malate dehydrogenase from pig heart (pig) (P00346 25-338): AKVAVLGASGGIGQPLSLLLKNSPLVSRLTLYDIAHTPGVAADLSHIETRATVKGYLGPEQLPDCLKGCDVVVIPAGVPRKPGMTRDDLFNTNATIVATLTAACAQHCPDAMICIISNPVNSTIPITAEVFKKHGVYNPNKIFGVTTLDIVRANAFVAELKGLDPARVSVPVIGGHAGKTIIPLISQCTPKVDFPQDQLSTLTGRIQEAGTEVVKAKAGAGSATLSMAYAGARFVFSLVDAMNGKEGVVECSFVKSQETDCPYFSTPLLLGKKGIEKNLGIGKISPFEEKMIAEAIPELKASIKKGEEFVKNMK
Chain of recombinant firefly luciferase (firefly) [luciferase: P08659] (P08659 whole entry): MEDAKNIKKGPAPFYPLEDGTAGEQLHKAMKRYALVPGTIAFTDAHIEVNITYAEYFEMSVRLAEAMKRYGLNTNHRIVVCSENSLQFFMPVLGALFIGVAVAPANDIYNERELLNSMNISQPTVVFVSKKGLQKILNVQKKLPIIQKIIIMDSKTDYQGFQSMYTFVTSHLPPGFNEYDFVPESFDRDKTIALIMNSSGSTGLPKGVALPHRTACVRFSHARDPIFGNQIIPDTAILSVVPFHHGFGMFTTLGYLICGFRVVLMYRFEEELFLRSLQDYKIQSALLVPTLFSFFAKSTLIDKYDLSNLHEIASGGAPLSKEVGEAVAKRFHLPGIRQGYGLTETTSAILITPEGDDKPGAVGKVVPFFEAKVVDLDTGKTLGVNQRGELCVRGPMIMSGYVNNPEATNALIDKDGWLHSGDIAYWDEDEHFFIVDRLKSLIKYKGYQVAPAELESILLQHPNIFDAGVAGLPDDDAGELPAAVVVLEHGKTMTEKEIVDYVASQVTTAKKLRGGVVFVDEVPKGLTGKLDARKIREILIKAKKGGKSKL

A word on the Kd: it is the concentration at which binding is half-saturated. A low value points to tighter binding. The molecule “Mycobacterium tuberculosis ClpB F140T (from UniProt P9WPD1 1-848) (natural protein)” displayed a Kd in the test with FITC-labelled casein of 24 µM. This counts as double-digit micromolar.

In the test with FITC-labelled casein, “Mycobacterium tuberculosis ClpB L97D (from UniProt P9WPD1 1-848) (natural protein)” registered a Kd of 10 µM.

Take “Mycobacterium tuberculosis ClpB L101Q (from UniProt P9WPD1 1-848) (natural protein)”: the Kd with FITC-labelled casein was determined as 5.3 µM.

On to “Mycobacterium tuberculosis ClpB V141K (from UniProt P9WPD1 1-848) (natural protein)”, for which the dissociation constant Kd in the test with FITC-labelled casein is 10 µM.

A word on the stoichiometry N: it is a count of units in the complex or per binding partner. For “N-terminally truncated Mycobacterium tuberculosis ClpB (ClpB∆N, residues 149–848) (from UniProt P9WPD1 149-848) (domain or fragment)”, the stoichiometry N in test [1] was 6 and 4; in test [7], 6; in test [9] it was 6 and 2. For the same molecule, the prevention of heat aggregation of luciferase by the highest concentration of ClpB∆N in the absence of ATP in test [2] turned out to be 24%. In test [3], the reactivation of large aggregates of luciferase by ClpB∆N against ClpB, alone and with KJE (luminescence) is greater than 20%. This molecule also came in with an ATPase activity of ClpB∆N left at 1 mM ADP (5 mM ATP) with 1 μM DnaK in test [4] of 17%. In the test with FITC-labelled casein, the Kd was found to be 6.94 µM. The reactivation of small aggregates of MDH by 1 μM ClpB∆N with 1 μM KJE complex (about 25% by ClpB∆N alone, 3.6% by KJE alone) in test [5] came to 32%. The reactivation of small aggregates of MDH by 1 μM ClpB∆N alone, percent of native MDH activity in [6] amounted to 25%. For the same molecule, the drop of reactivation activity of ClpB∆N alone on large against small aggregates of MDH in [8] worked out at 80%. In test [8], this molecule had a drop of reactivation activity of ClpB∆N with KJE on large against small aggregates of MDH of 48%.

B1: FITC-labelled casein (natural protein)
chain: RPKHPIKHQGLPQEVLNENLLRFFVAPFPEVFGKEKVNELSKDIGSESTEDQAMEDIKQMEAESISSSEEIVPNSVEQKHIQKEDVPSERYLGYLEQLLRLKKYKVPQLEIVPNSAEERLHSMKEGIHAQQKEPMIGVNQELAYFYPELFRQFYQLDAYPSGAWYYVPLGTQYTDAPSFSDIPNPIGSENSEKTTMPLW
modifications: FITC label
For B1, the Kd turned out to be 0.9 µM in test [10] and 0.88 ± 0.47 µM in test [11].
